The target in assay [1] is opossum kidney PTH/PTHrP receptor clone OK-H (opossum). The assay can be described thus: cell-based or functional assay.
Assay [2] addresses human kidney PTH/PTHrP receptor (full-length cDNA HKrk) (human). The assay can be described thus: apparent Kd, competitive radioreceptor assay on COS-7 cells expressing the human receptor (FIG. 17).
Assay [3] shares this target. The assay can be described thus: radioreceptor assay, radiolabelled ligand (~200,000 cpm) on COS-7 cells expressing the human receptor.
Assay [4] shares this target. Briefly: competitive radioreceptor assay on COS-7 cells; human receptor against rat bone receptor.
For assay [5], the target named is rat bone PTH/PTHrP receptor clone R15B (rat). The assay can be described thus: radioreceptor assay, radiolabelled ligand (~200,000 cpm) on COS-7 cells expressing R15B.
Assay [6] has the same target. Briefly: apparent Kd, competitive radioreceptor assay on COS-7 cells expressing the rat bone receptor (FIG. 17).
In assay [7] the target is human kidney PTH/PTHrP receptor (full-length cDNA HKrk) (human). The assay can be described thus: competitive radioreceptor assay on COS-7 cells; HKrK against R15B.
Assay [8] has the same target. The assay can be described thus: affinity from competitive radioreceptor assay on COS-7 cells expressing HKrK.
In assay [9] the target is rat bone PTH/PTHrP receptor clone R15B (rat). The assay can be described thus: affinity from competitive radioreceptor assay on COS-7 cells expressing R15B.
The target of assay [10] is human kidney PTH/PTHrP receptor (full-length cDNA HKrk) (human). The assay can be described thus: competitive radioreceptor assay on COS-7 cells; human receptor against rat receptor.
For assay [11] the target is unchanged. Briefly: affinity from competitive radioreceptor assay on COS-7 cells expressing HKrk.

Results on four substances are retold here after patent publication US20030153041A1.

As for “[Nle^8,18, Tyr^34]bPTH(1-34)amide (from UniProt P01268 32-65) (peptide)”, the concentration of intracellular free calcium (Fura-2) in assay [1] was found to be 39 nm. Moreover, the Kd in [2] amounted to 5 nM; in assay [6], 10 nM. The specific binding came to 10.1% in assay [3] and 8.1% in assay [5]. Also, in assay [4], the fold difference in apparent Kd against the rat bone PTH/PTHrP receptor was determined as 2 fold.
In assay [7], “[Nle^8,18, Tyr^34]bPTH(3-34)amide (from UniProt P01268 34-65) (peptide)” had a fold higher affinity against R15B of 7 fold. For the same substance, the Kd in assay [8] was 7 nM; in assay [9], 45 nM.
The matching figures for “[Nle^8,18, Tyr^34]bPTH(7-34)amide (from UniProt P01268 38-65) (peptide)”: 35 fold, 60 nM and 2000 nM.
For the substance “[Tyr^36]PTHrP(1-36)amide (from UniProt P12272 37-72) (peptide)”, the fold lower affinity against the rat receptor in [10] is 2 to 4 fold. Also, the specific binding came out at 7.6% in assay [3] and 7.1% in [5]. For the same substance, the Kd in assay [9] came out at 10 nM; in [11] it was 35 nM.
